The values below come from publication PMC9352680, “A comprehensive thermodynamic model for RNA binding by the Saccharomyces cerevisiae Pumilio protein PUF4”.

This series has as its target T1, PUF4 RNA-binding domain (Saccharomyces cerevisiae, UniProt P25339 537-888).
T1 sequence: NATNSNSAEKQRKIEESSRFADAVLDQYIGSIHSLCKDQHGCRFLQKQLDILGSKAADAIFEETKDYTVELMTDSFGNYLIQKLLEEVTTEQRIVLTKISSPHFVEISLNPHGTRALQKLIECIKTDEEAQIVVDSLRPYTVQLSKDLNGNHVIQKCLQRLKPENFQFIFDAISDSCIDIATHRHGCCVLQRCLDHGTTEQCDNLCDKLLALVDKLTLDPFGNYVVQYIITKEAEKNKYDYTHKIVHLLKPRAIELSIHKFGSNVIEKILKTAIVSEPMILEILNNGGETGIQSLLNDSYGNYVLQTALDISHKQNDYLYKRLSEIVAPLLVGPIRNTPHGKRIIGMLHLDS
Nature of the series: Mg; RNA-MaP; 20 mM Na-HEPES pH 7.4, 30 mM KOAc, 0.75 mM MgCl2, 0.1% Tween-20, 5% glycerol, 0.1 mg/mL BSA, 2 mM DTT; 25 C; 0.0125-409.6 nM protein. To be noted: tags: N-His6-TEV cleaved; C-SNAP kept, Cy3B-labelled; label: tethered on chip by stalled RNA polymerase.
On to UCUCUUCUUGUAUAUAACUCUCUU (ssRNA) [Id_ii_S1_P3E.2_K3.1_C3.2_H3.1_A3.1_F3.1_T3.2_[T9A]_[A10C]], for which the affinity, expressed as Kd, was 8.53 nM.

UCUCUUGUUAUAUAUAAUUCUCUU (ssRNA) [Id_ii_S1_P3E.3_K3.2_C3.2_[C-2G]_H3.2_A3.1_F3.1_T3.2_[T9A]_[A10T]] yielded a Kd of 44.6 nM.

The molecule UCUCUUUCUAUAUAUAAUUCUCUU (ssRNA) [Id_ii_S1_P3E.3_K3.2_C3.2_[C-2T]_[T-1C]_H3.2_A3.1_F3.1_T3.2_[T9A]_[A10T]] displayed a Kd of 1010 nM. This Kd lies about 23-fold higher than the previous one. With UCUCUUCGUAUGUUAUCUCUU (ssRNA) [Ib_S1_P4E.1_K4.1_C4.1_H4.1_[T1C]_A4.1_[A6G]_F4.1_T4.1] the figure was more than 2300 nM; with UCUCUUGAUAUAUAUAAUUCUCUU (ssRNA) [Id_ii_S1_P3E.3_K3.2_C3.2_[C-2G]_[T-1A]_H3.2_A3.1_F3.1_T3.2_[T9A]_[A10T]], 1040 nM. For the molecule UCUCUUCAUGUAUAUAUUUCUCUU (ssRNA) [Id_ii_S1_P3E.2_K3.1_C3.2_[T-1A]_H3.1_A3.1_F3.1_T3.2_[A10T]], binding was put at a Kd of 8.07 nM. Next, UCUCUUCUUGUAUAUACGUCUCUU (ssRNA) [Id_ii_S1_P3E.2_K3.1_C3.2_H3.1_A3.1_F3.1_T3.2_[T9C]_[A10G]]: 10.9 nM; UCUCUUCUUGUAUAUAAAUCUCUU (ssRNA) [Id_ii_S1_P3E.2_K3.1_C3.2_H3.1_A3.1_F3.1_T3.2_[T9A]]: 8.21 nM; UCUCUUCUUGUAUAUAAUUCUCUU (ssRNA) [Id_ii_S1_P3E.2_K3.1_C3.2_H3.1_A3.1_F3.1_T3.2_[T9A]_[A10T]]: 8.3 nM. Next, UCUCUUCGUAAAUUAUCUCUU (ssRNA) [Ib_S1_P4E.1_K4.1_C4.1_H4.1_[T1C]_A4.1_[T5A]_F4.1_T4.1]: 139 nM; UCUCUUUCUAUAUAUAUCUCUCUU (ssRNA) [Id_ii_S1_P3E.3_K3.2_C3.2_[C-2T]_[T-1C]_H3.2_A3.1_F3.1_T3.2_[A10C]]: 602 nM. With UCUCUUUGUAUAUAUAUCUCUCUU (ssRNA) [Id_ii_S1_P3E.3_K3.2_C3.2_[C-2T]_[T-1G]_H3.2_A3.1_F3.1_T3.2_[A10C]] the figure was 3.36 nM; with UCUCUUGCUAUAUAUAUCUCUCUU (ssRNA) [Id_ii_S1_P3E.3_K3.2_C3.2_[C-2G]_[T-1C]_H3.2_A3.1_F3.1_T3.2_[A10C]], 545 nM.

Molecule UCUCUUUGUAUAUAUAACUCUCUU (ssRNA) [Id_ii_S1_P3E.3_K3.2_C3.2_[C-2T]_[T-1G]_H3.2_A3.1_F3.1_T3.2_[T9A]_[A10C]] gave a Kd of 4.91 nM. For the molecule UCUCUUUCUAUAUAUACCUCUCUU (ssRNA) [Id_ii_S1_P3E.3_K3.2_C3.2_[C-2T]_[T-1C]_H3.2_A3.1_F3.1_T3.2_[T9C]_[A10C]], the Kd came out at 1390 nM. Compared with the last molecule, the Kd is about 280-fold higher.

In turn, UCUCUUCGUACAUUAUCUCUU (ssRNA) [Ib_S1_P4E.1_K4.1_C4.1_H4.1_[T1C]_A4.1_[T5C]_F4.1_T4.1] displayed a Kd of 16.8 nM. With UCUCUUGUUAUAUAUAAAUCUCUU (ssRNA) [Id_ii_S1_P3E.3_K3.2_C3.2_[C-2G]_H3.2_A3.1_F3.1_T3.2_[T9A]] the figure was 50 nM. Consider UCUCUUGUUAUAUAUACGUCUCUU (ssRNA) [Id_ii_S1_P3E.3_K3.2_C3.2_[C-2G]_H3.2_A3.1_F3.1_T3.2_[T9C]_[A10G]], for which the dissociation constant (Kd) turned out to be 55.2 nM. UCUCUUUGUAUAUAUAGUUCUCUU (ssRNA) [Id_ii_S1_P3E.3_K3.2_C3.2_[C-2T]_[T-1G]_H3.2_A3.1_F3.1_T3.2_[T9G]_[A10T]] yielded a Kd of 2.33 nM. Next, UCUCUUGAUAUAUAUACCUCUCUU (ssRNA) [Id_ii_S1_P3E.3_K3.2_C3.2_[C-2G]_[T-1A]_H3.2_A3.1_F3.1_T3.2_[T9C]_[A10C]]: 1310 nM; UCUCUUUCUAUAUAUAUGUCUCUU (ssRNA) [Id_ii_S1_P3E.3_K3.2_C3.2_[C-2T]_[T-1C]_H3.2_A3.1_F3.1_T3.2_[A10G]]: 1210 nM. Consider UCUCUUGAUAUAUAUAGCUCUCUU (ssRNA) [Id_ii_S1_P3E.3_K3.2_C3.2_[C-2G]_[T-1A]_H3.2_A3.1_F3.1_T3.2_[T9G]_[A10C]], for which the affinity, expressed as Kd, was 500 nM. With UCUCUUCUUGUAUAUACUUCUCUU (ssRNA) [Id_ii_S1_P3E.2_K3.1_C3.2_H3.1_A3.1_F3.1_T3.2_[T9C]_[A10T]] the figure was 7.04 nM; with UCUCUUCUUGUAUAUAUCUCUCUU (ssRNA) [Id_ii_S1_P3E.2_K3.1_C3.2_H3.1_A3.1_F3.1_T3.2_[A10C]], 6.72 nM; with UCUCUUGGUAUAUAUAACUCUCUU (ssRNA) [Id_ii_S1_P3E.3_K3.2_C3.2_[C-2G]_[T-1G]_H3.2_A3.1_F3.1_T3.2_[T9A]_[A10C]], 782 nM. Regarding UCUCUUUGUAUAUAUACCUCUCUU (ssRNA) [Id_ii_S1_P3E.3_K3.2_C3.2_[C-2T]_[T-1G]_H3.2_A3.1_F3.1_T3.2_[T9C]_[A10C]], binding was put at a Kd of 10 nM.

Consider UCUCUUAGUACAUUAUCUCUU (ssRNA) [Ib_S1_P4E.1_K4.1_C4.1_H4.1_[T1A]_A4.1_[T5C]_F4.1_T4.1], for which binding was characterised by a dissociation constant (Kd) of 39.1 nM. With UCUCUUGCUAUAUAUACUUCUCUU (ssRNA) [Id_ii_S1_P3E.3_K3.2_C3.2_[C-2G]_[T-1C]_H3.2_A3.1_F3.1_T3.2_[T9C]_[A10T]] the figure was 853 nM; with UCUCUUUGUAUAUAUAUUUCUCUU (ssRNA) [Id_ii_S1_P3E.3_K3.2_C3.2_[C-2T]_[T-1G]_H3.2_A3.1_F3.1_T3.2_[A10T]], 5 nM.

The molecule UCUCUUCUUGUAUAUAUUUCUCUU (ssRNA) [Id_ii_S1_P3E.2_K3.1_C3.2_H3.1_A3.1_F3.1_T3.2_[A10T]] showed a Kd of 5.12 nM. Next, UCUCUUGUUAUAUAUAUAUCUCUU (ssRNA) [Id_ii_S1_P3E.3_K3.2_C3.2_[C-2G]_H3.2_A3.1_F3.1_T3.2]: 41.1 nM; UCUCUUUCUAUAUAUAGUUCUCUU (ssRNA) [Id_ii_S1_P3E.3_K3.2_C3.2_[C-2T]_[T-1C]_H3.2_A3.1_F3.1_T3.2_[T9G]_[A10T]]: 771 nM; UCUCUUGUUAUAUAUAGUUCUCUU (ssRNA) [Id_ii_S1_P3E.3_K3.2_C3.2_[C-2G]_H3.2_A3.1_F3.1_T3.2_[T9G]_[A10T]]: 12.1 nM. With UCUCUUGGUAUAUAUAGUUCUCUU (ssRNA) [Id_ii_S1_P3E.3_K3.2_C3.2_[C-2G]_[T-1G]_H3.2_A3.1_F3.1_T3.2_[T9G]_[A10T]] the figure was 124 nM. Turning to UCUCUUGUUAUAUAUACCUCUCUU (ssRNA) [Id_ii_S1_P3E.3_K3.2_C3.2_[C-2G]_H3.2_A3.1_F3.1_T3.2_[T9C]_[A10C]], the Kd is 35.9 nM. With UCUCUUUGUAUAUAUAUGUCUCUU (ssRNA) [Id_ii_S1_P3E.3_K3.2_C3.2_[C-2T]_[T-1G]_H3.2_A3.1_F3.1_T3.2_[A10G]] the figure was 4.85 nM; with UCUCUUCUUGUAUAUAGCUCUCUU (ssRNA) [Id_ii_S1_P3E.2_K3.1_C3.2_H3.1_A3.1_F3.1_T3.2_[T9G]_[A10C]], 4.12 nM. In turn, UCUCUUGCUAUAUAUAACUCUCUU (ssRNA) [Id_ii_S1_P3E.3_K3.2_C3.2_[C-2G]_[T-1C]_H3.2_A3.1_F3.1_T3.2_[T9A]_[A10C]] gave a Kd of 1500 nM. Against the preceding molecule, the Kd is about 360-fold higher. For UCUCUUUCUAUAUAUACGUCUCUU (ssRNA) [Id_ii_S1_P3E.3_K3.2_C3.2_[C-2T]_[T-1C]_H3.2_A3.1_F3.1_T3.2_[T9C]_[A10G]], the Kd stood at 1450 nM. Next, UCUCUUAGUAAAUUAUCUCUU (ssRNA) [Ib_S1_P4E.1_K4.1_C4.1_H4.1_[T1A]_A4.1_[T5A]_F4.1_T4.1]: 491 nM; UCUCUUCUUGUAUAUAUAUCUCUU (ssRNA) [Id_ii_S1_P3E.2_K3.1_C3.2_H3.1_A3.1_F3.1_T3.2]: 3.83 nM; UCUCUUCGUAUUUUAUCUCUU (ssRNA) [Ib_S1_P4E.1_K4.1_C4.1_H4.1_[T1C]_A4.1_[A6T]_F4.1_T4.1]: 591 nM. With UCUCUUUGUAUAUAUAGCUCUCUU (ssRNA) [Id_ii_S1_P3E.3_K3.2_C3.2_[C-2T]_[T-1G]_H3.2_A3.1_F3.1_T3.2_[T9G]_[A10C]] the figure was 3.66 nM; with UCUCUUUCUAUAUAUAACUCUCUU (ssRNA) [Id_ii_S1_P3E.3_K3.2_C3.2_[C-2T]_[T-1C]_H3.2_A3.1_F3.1_T3.2_[T9A]_[A10C]], 960 nM; with UCUCUUUCUAUAUAUACAUCUCUU (ssRNA) [Id_ii_S1_P3E.3_K3.2_C3.2_[C-2T]_[T-1C]_H3.2_A3.1_F3.1_T3.2_[T9C]], 1030 nM. With UCUCUUUAUAUAUAUAGCUCUCUU (ssRNA) [Id_ii_S1_P3E.3_K3.2_C3.2_[C-2T]_[T-1A]_H3.2_A3.1_F3.1_T3.2_[T9G]_[A10C]] the figure was 148 nM. For the molecule UCUCUUCUUGUAUAUACCUCUCUU (ssRNA) [Id_ii_S1_P3E.2_K3.1_C3.2_H3.1_A3.1_F3.1_T3.2_[T9C]_[A10C]], the Kd was determined as 7.41 nM. Next, UCUCUUUGUAUAUAUAAGUCUCUU (ssRNA) [Id_ii_S1_P3E.3_K3.2_C3.2_[C-2T]_[T-1G]_H3.2_A3.1_F3.1_T3.2_[T9A]_[A10G]]: 8.25 nM; UCUCUUGUUAUAUAUACUUCUCUU (ssRNA) [Id_ii_S1_P3E.3_K3.2_C3.2_[C-2G]_H3.2_A3.1_F3.1_T3.2_[T9C]_[A10T]]: 51.5 nM; UCUCUUCUUGUAUAUAUGUCUCUU (ssRNA) [Id_ii_S1_P3E.2_K3.1_C3.2_H3.1_A3.1_F3.1_T3.2_[A10G]]: 12.2 nM. Regarding UCUCUUGCUAUAUAUAUGUCUCUU (ssRNA) [Id_ii_S1_P3E.3_K3.2_C3.2_[C-2G]_[T-1C]_H3.2_A3.1_F3.1_T3.2_[A10G]], the Kd worked out at 754 nM. Compared with the last molecule, the Kd is about 62-fold higher. With UCUCUUUGUAUAUAUAAUUCUCUU (ssRNA) [Id_ii_S1_P3E.3_K3.2_C3.2_[C-2T]_[T-1G]_H3.2_A3.1_F3.1_T3.2_[T9A]_[A10T]] the figure was 8.44 nM; with UCUCUUUCUAUAUAUAGCUCUCUU (ssRNA) [Id_ii_S1_P3E.3_K3.2_C3.2_[C-2T]_[T-1C]_H3.2_A3.1_F3.1_T3.2_[T9G]_[A10C]], 620 nM. With UCUCUUGUUAUAUAUAUGUCUCUU (ssRNA) [Id_ii_S1_P3E.3_K3.2_C3.2_[C-2G]_H3.2_A3.1_F3.1_T3.2_[A10G]] the figure was 46.3 nM; with UCUCUUCUUGUAUAUAGUUCUCUU (ssRNA) [Id_ii_S1_P3E.2_K3.1_C3.2_H3.1_A3.1_F3.1_T3.2_[T9G]_[A10T]], 3.72 nM; with UCUCUUGUUAUAUAUAUCUCUCUU (ssRNA) [Id_ii_S1_P3E.3_K3.2_C3.2_[C-2G]_H3.2_A3.1_F3.1_T3.2_[A10C]], 24.8 nM. Next, UCUCUUUCUAUAUAUAUUUCUCUU (ssRNA) [Id_ii_S1_P3E.3_K3.2_C3.2_[C-2T]_[T-1C]_H3.2_A3.1_F3.1_T3.2_[A10T]]: 591 nM. UCUCUUGGUAUAUAUAAUUCUCUU (ssRNA) [Id_ii_S1_P3E.3_K3.2_C3.2_[C-2G]_[T-1G]_H3.2_A3.1_F3.1_T3.2_[T9A]_[A10T]] registered a Kd of 524 nM.
